Results from EP4803139A2 (Amgen Inc., dated 2026).

Target: T1, PCSK2 (R&D Systems) (UniProt P16519 26-638, limits assumed)
T1 sequence (looked up): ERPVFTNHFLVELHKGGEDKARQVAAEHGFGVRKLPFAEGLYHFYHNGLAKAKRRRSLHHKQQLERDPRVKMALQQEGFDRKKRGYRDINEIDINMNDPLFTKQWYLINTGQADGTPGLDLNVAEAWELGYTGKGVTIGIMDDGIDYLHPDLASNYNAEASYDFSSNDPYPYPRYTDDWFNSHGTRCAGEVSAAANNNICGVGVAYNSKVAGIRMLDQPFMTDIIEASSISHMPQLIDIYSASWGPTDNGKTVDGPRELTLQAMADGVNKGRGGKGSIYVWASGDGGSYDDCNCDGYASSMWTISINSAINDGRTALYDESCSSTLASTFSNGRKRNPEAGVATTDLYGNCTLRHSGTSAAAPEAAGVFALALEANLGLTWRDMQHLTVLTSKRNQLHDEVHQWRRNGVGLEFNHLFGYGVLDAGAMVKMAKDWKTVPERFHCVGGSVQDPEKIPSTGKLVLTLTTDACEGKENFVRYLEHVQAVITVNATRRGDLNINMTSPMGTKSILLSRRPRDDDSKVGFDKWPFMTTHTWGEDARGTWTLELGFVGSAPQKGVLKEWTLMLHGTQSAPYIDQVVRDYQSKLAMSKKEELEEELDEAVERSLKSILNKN
Assay: competition ELISA: 0.4 µg/mL 11F1 pre-incubated with the convertase in solution, then binding to plate-captured biotinylated PCSK9

binding result: no binding (tested: 0 to 20 µg/mL)
B1: 11F1, anti-PCSK9 antibody (antibody, V domains shown)
VH: EVQLVESGGGLVQPGGSLRLSCAASGFTFSNYWMSWVRQAPGKGLEWVASIKQDGSEKYYVDSVKGRFAISRDNAKNSLFLQMNSLRAEDTAVYYCARDLVLMVYDIDYYYYGMDVWGQGTTVTVSS
VL: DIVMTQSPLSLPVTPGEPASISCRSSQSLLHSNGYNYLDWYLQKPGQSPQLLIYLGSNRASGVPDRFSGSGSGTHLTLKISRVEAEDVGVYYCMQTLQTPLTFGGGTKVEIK
